{"source": "paper PMC4815241", "about": "(Protein Science : A Publication of the Protein Society, 2015)", "key": {"[1]": {"biological_target": "eIF4GII_(551–745)/eIF4E complex (human | murine) (UniProt O43432)", "sequence (O43432 551-745, chain 1 of 2)": "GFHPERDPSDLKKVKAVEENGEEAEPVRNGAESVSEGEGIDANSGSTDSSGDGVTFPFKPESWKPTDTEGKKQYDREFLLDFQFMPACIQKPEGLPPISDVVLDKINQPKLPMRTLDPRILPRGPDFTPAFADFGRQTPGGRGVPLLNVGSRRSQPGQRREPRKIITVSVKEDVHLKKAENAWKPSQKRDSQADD", "sequence (P63073 whole entry, chain 2 of 2, further chain)": "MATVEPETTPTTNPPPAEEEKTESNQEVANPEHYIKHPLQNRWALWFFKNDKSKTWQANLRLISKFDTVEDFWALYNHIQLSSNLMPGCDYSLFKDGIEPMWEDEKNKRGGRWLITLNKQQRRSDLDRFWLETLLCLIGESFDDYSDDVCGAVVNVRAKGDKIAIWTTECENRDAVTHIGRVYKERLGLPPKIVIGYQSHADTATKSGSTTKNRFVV", "assay": "ITC"}, "[2]": {"biological_target": "eIF4GII_(551–745)/eIF4E complex (human | murine) (UniProt O43432)", "assay": "SEC-MALS"}}, "data": [{"substance": "FMDV leader proteinase, shortened form, sLb^proC51A (FMDV residues 29–195) (enzyme)", "values": [{"measurement": "Kd", "setting": "[1]", "value": 33, "unit": "nM"}, {"measurement": "stoichiometry N", "setting": "[2]", "value": 1}]}]}
